Measurements as given in the supplement of paper PMC10567573.

B1: NET1 (parent)
chain: RVRPLARVTSLANLISPVRNGAVR

Variants of: B1
Assay: protein stability index of a GFP-peptide fusion (GPS, HEK-293T) (PSI 1-6); higher = more stable
Settings: c terminus: a fixed tail appended
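Also: lentivirally expressed fusions sorted by FACS into six bins by GFP to DsRed ratio, PSI derived from sequencing read proportions per bin multiplied by bin number.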

Variant	protein stability index
RVRPLARVTSLASLISPVRNGAVR [N13S]	2.65
RVRPLARVTSLAGLISPVRNGAVR [N13G]	3.05
RVRPLARVTSLAPLISPVRNGAVR [N13P]	3.65
RVRPLARVTSLAWLISPVRNGAVR [N13W]	1.72
RVRPLARVTSLAYLISPVRNGAVR [N13Y]	1.38
RVRPLARVTSLATLISPVRNGAVR [N13T]	3.11
RVRPLARVTSLAELISPVRNGAVR [N13E]	3.22
RVRPLARVTSLAHLISPVRNGAVR [N13H]	2.66
RVRPLARVTSLALLISPVRNGAVR [N13L]	1.98
RVRPLARVTSLAILISPVRNGAVR [N13I]	2.34
RVRPLARVTSLACLISPVRNGAVR [N13C]	1.93
RVRPLARVTSLAFLISPVRNGAVR [N13F]	2.6
RVRPLARVTSLAALISPVRNGAVR [N13A]	2.75
RVRPLARVTSLADLISPVRNGAVR [N13D]	3.43
RVRPLARVTSLAQLISPVRNGAVR [N13Q]	2.52
RVRPLARVTSLARLISPVRNGAVR [N13R]	3.33
RVRPLARVTSLAKLISPVRNGAVR [N13K]	2.84
RVRPLARVTSLAMLISPVRNGAVR [N13M]	1.92
RVRPLARVTSLAVLISPVRNGAVR [N13V]	2.33
RVRPLARVTSLVNLISPVRNGAVR [A12V]	2.89
RVRPLARVTSLQNLISPVRNGAVR [A12Q]	3.71
RVRPLARVTSLFNLISPVRNGAVR [A12F]	2.14
RVRPLARVTSLMNLISPVRNGAVR [A12M]	2.42
RVRPLARVTSLKNLISPVRNGAVR [A12K]	2.94

Variant	protein stability index
RVRPLARVTSLYNLISPVRNGAVR [A12Y]	2.52
RVRPLARVTSLRNLISPVRNGAVR [A12R]	2.64
RVRPLARVTSLWNLISPVRNGAVR [A12W]	1.83
RVRPLARVTSLDNLISPVRNGAVR [A12D]	3.93
RVRPLARVTSLINLISPVRNGAVR [A12I]	2.58
RVRPLARVTSLPNLISPVRNGAVR [A12P]	4.28
RVRPLARVTSLSNLISPVRNGAVR [A12S]	3.49
RVRPLARVTSLLNLISPVRNGAVR [A12L]	2.77
RVRPLARVTSLCNLISPVRNGAVR [A12C]	2.66
RVRPLARVTSLTNLISPVRNGAVR [A12T]	3.89
RVRPLARVTSLHNLISPVRNGAVR [A12H]	3.27
RVRPLARVTSLENLISPVRNGAVR [A12E]	3.91
RVRPLARVTSLNNLISPVRNGAVR [A12N]	2.79
RVRPLARVTSTANLISPVRNGAVR [L11T]	3.56
RVRPLARVTSQANLISPVRNGAVR [L11Q]	4.39
RVRPLARVTSMANLISPVRNGAVR [L11M]	3.45
RVRPLARVTSKANLISPVRNGAVR [L11K]	3.21
RVRPLARVTSPANLISPVRNGAVR [L11P]	3.96
RVRPLARVTSRANLISPVRNGAVR [L11R]	3.29
RVRPLARVTSDANLISPVRNGAVR [L11D]	3.24
RVRPLARVTSWANLISPVRNGAVR [L11W]	1.98
RVRPLARVTSGANLISPVRNGAVR [L11G]	3.25
RVRPLARVTSEANLISPVRNGAVR [L11E]	3.56
RVRPLARVTSAANLISPVRNGAVR [L11A]	3.98

Variant	protein stability index
RVRPLARVTSYANLISPVRNGAVR [L11Y]	2.43
RVRPLARVTSFANLISPVRNGAVR [L11F]	3.19
RVRPLARVTSCANLISPVRNGAVR [L11C]	2.56
RVRPLARVTSIANLISPVRNGAVR [L11I]	2.83
RVRPLARVTSSANLISPVRNGAVR [L11S]	3.14
RVRPLARVTSHANLISPVRNGAVR [L11H]	2.94
RVRPLARVTSNANLISPVRNGAVR [L11N]	3.77
RVRPLARVTSVANLISPVRNGAVR [L11V]	3.08
RVRPLARVTSLANLITPVRNGAVR [S16T]	3.56
RVRPLARVTSLANLIAPVRNGAVR [S16A]	3.46
RVRPLARVTSLANLIWPVRNGAVR [S16W]	2.55
RVRPLARVTSLANLIVPVRNGAVR [S16V]	2.99
RVRPLARVTSLANLIPPVRNGAVR [S16P]	3.32
RVRPLARVTSLANLIQPVRNGAVR [S16Q]	3.76
RVRPLARVTSLANLIKPVRNGAVR [S16K]	2.88
RVRPLARVTSLANLINPVRNGAVR [S16N]	3.23
RVRPLARVTSLANLIDPVRNGAVR [S16D]	2.86
RVRPLARVTSLANLIFPVRNGAVR [S16F]	2.21
RVRPLARVTSLANLIIPVRNGAVR [S16I]	2.44
RVRPLARVTSLANLIRPVRNGAVR [S16R]	3.03
RVRPLARVTSLANLICPVRNGAVR [S16C]	1.25
RVRPLARVTSLANLIEPVRNGAVR [S16E]	3.15
RVRPLARVTSLANLIMPVRNGAVR [S16M]	2.31
RVRPLARVTSLANLILPVRNGAVR [S16L]	2.49

Variant	protein stability index
RVRPLARVTSLANLIGPVRNGAVR [S16G]	3.14
RVRPLARVTSLANLIHPVRNGAVR [S16H]	2.83
RVRPLARVTSLANLIYPVRNGAVR [S16Y]	2.66
RVRPLARVTSLANLISPVGNGAVR [R19G]	3.4
RVRPLARVTSLANLISPVKNGAVR [R19K]	2.59
RVRPLARVTSLANLISPVFNGAVR [R19F]	2.29
RVRPLARVTSLANLISPVNNGAVR [R19N]	3.28
RVRPLARVTSLANLISPVINGAVR [R19I]	3.02
RVRPLARVTSLANLISPVHNGAVR [R19H]	2.69
RVRPLARVTSLANLISPVTNGAVR [R19T]	3.3
RVRPLARVTSLANLISPVPNGAVR [R19P]	2.68
RVRPLARVTSLANLISPVENGAVR [R19E]	3.55
RVRPLARVTSLANLISPVMNGAVR [R19M]	2.53
RVRPLARVTSLANLISPVCNGAVR [R19C]	2.99
RVRPLARVTSLANLISPVLNGAVR [R19L]	2.81
RVRPLARVTSLANLISPVQNGAVR [R19Q]	3.06
RVRPLARVTSLANLISPVDNGAVR [R19D]	3.76
RVRPLARVTSLANLISPVANGAVR [R19A]	2.96
RVRPLARVTSLANLISPVSNGAVR [R19S]	3.2
RVRPLARVTSLANLISPYRNGAVR [V18Y]	2.23
RVRPLARVTSLANLISPCRNGAVR [V18C]	2.21
RVRPLARVTSLANLISPERNGAVR [V18E]	3.63
